First the molecules themselves.
B1: GA-binding protein alpha chain, residues 172 to 250; numbered along this chain, Q06546 (parent)
chain: GYRKEQERLGIPYDPIQWSTDQVLHWVVWVMKEFSMTDIDLTTLNISGRELCSLNQEDFFQRVPRGEILWSHLELLRKY

± gives the uncertainty stated by the source.

Variants of B1 are the subject of this series. Briefly: abundance fitness (aPCA) (normalised: wild type 0, dead -1); higher = more abundant; growth selection in yeast, the domain comes from the species named. The following applies: Homo sapiens.
Take GYRKEQERLGIPYDPIQWSTDQVLHWVVWVMKEFSMTDIDLTTLNISGRELCLLNQEDFFQRVPRGEILWSHLELLRKY: the abundance fitness is -0.108 ± 0.042.

Consider GYRKEQERLGIPYDPIQWSTDQVLHWVVWVMKEFSMTDIDLTTLNISGRELCNLNQEDFFQRVPRGEILWSHLELLRKY, for which the abundance fitness is -0.033 ± 0.085. For GYRKEQERLGIPYDPIQWSTDQVLHWVVWVMKEFSMTDIDLTTLNISGRELCFLNQEDFFQRVPRGEILWSHLELLRKY the value was -0.269 ± 0.063; for GYRKEQERLGIPYDPIQWSTDQVLHWVVWVMKEFSMTDIDLTTLNISGRELCCLNQEDFFQRVPRGEILWSHLELLRKY, -0.061 ± 0.061.

For GYRKEQERLGIPYDPIQWSTDQVLHWVVWVMKEFSMTDIDLTTLNISGRELCMLNQEDFFQRVPRGEILWSHLELLRKY, the abundance fitness was -0.121 ± 0.055. Turning to GYRKEQERLGIPYDPIQWSTDQVLHWVVWVMKEFSMTDIDLTTLNISGRELCRLNQEDFFQRVPRGEILWSHLELLRKY, the abundance fitness was -0.057 ± 0.037. Take GYRKEQERLGIPYDPIQWSTDQVLHWVVWVMKEFSMTDIDLTTLNISGRELCTLNQEDFFQRVPRGEILWSHLELLRKY: the abundance fitness is -0.144 ± 0.09. As for GYRKEQERLGIPYDPIQWSTDQVLHWVVWVMKEFSMTDIDLTTLNISGRELCVLNQEDFFQRVPRGEILWSHLELLRKY, the abundance fitness was -0.331 ± 0.065. For GYRKEQERLGIPYDPIQWSTDQVLHWVVWVMKEFSMTDIDLTTLNISGRELCALNQEDFFQRVPRGEILWSHLELLRKY the value was -0.063 ± 0.055. Regarding GYRKEQERLGIPYDPIQWSTDQVLHWVVWVMKEFSMTDIDLTTLNISGRELCHLNQEDFFQRVPRGEILWSHLELLRKY, the abundance fitness is -0.171 ± 0.077. Consider GYRKEQERLGIPYDPIQWSTDQVLHWVVWVMKEFSMTDIDLTTLNISGRELCPLNQEDFFQRVPRGEILWSHLELLRKY, for which the abundance fitness is -0.522 ± 0.072. Regarding GYRKEQERLGIPYDPIQWSTDQVLHWVVWVMKEFSMTDIDLTTLNISGRELCWLNQEDFFQRVPRGEILWSHLELLRKY, the abundance fitness was -0.381 ± 0.064. For GYRKEQERLGIPYDPIQWSTDQVLHWVVWVMKEFSMTDIDLTTLNISGRELCQLNQEDFFQRVPRGEILWSHLELLRKY the value was -0.085 ± 0.064; for GYRKEQERLGIPYDPIQWSTDQVLHWVVWVMKEFSMTDIDLTTLNISGRELCGLNQEDFFQRVPRGEILWSHLELLRKY, -0.068 ± 0.037. As for GYRKEQERLGIPYDPIQWSTDQVLHWVVWVMKEFSMTDIDLTTLNISGRELCDLNQEDFFQRVPRGEILWSHLELLRKY, the abundance fitness came to 0.076 ± 0.089. In the case of GYRKEQERLGIPYDPIQWSTDQVLHWVVWVMKEFSMTDIDLTTLNISGRELCSKNQEDFFQRVPRGEILWSHLELLRKY it was -0.649 ± 0.16; in that of GYRKEQERLGIPYDPIQWSTDQVLHWVVWVMKEFSMTDIDLTTLNISGRELCSCNQEDFFQRVPRGEILWSHLELLRKY, -0.374 ± 0.084; in that of GYRKEQERLGIPYDPIQWSTDQVLHWVVWVMKEFSMTDIDLTTLNISGRELCSINQEDFFQRVPRGEILWSHLELLRKY, -0.157 ± 0.095. In the case of GYRKEQERLGIPYDPIQWSTDQVLHWVVWVMKEFSMTDIDLTTLNISGRELCSENQEDFFQRVPRGEILWSHLELLRKY it was -0.484 ± 0.17.

Take GYRKEQERLGIPYDPIQWSTDQVLHWVVWVMKEFSMTDIDLTTLNISGRELCSMNQEDFFQRVPRGEILWSHLELLRKY: the abundance fitness was -0.009 ± 0.061. Take GYRKEQERLGIPYDPIQWSTDQVLHWVVWVMKEFSMTDIDLTTLNISGRELCSDNQEDFFQRVPRGEILWSHLELLRKY: the abundance fitness is -0.842 ± 0.35. In the case of GYRKEQERLGIPYDPIQWSTDQVLHWVVWVMKEFSMTDIDLTTLNISGRELCSQNQEDFFQRVPRGEILWSHLELLRKY it was -0.446 ± 0.089. Regarding GYRKEQERLGIPYDPIQWSTDQVLHWVVWVMKEFSMTDIDLTTLNISGRELCSSNQEDFFQRVPRGEILWSHLELLRKY, the abundance fitness is -0.693 ± 0.072. For GYRKEQERLGIPYDPIQWSTDQVLHWVVWVMKEFSMTDIDLTTLNISGRELCSFNQEDFFQRVPRGEILWSHLELLRKY the value was -0.051 ± 0.07; for GYRKEQERLGIPYDPIQWSTDQVLHWVVWVMKEFSMTDIDLTTLNISGRELCSYNQEDFFQRVPRGEILWSHLELLRKY, -0.273 ± 0.34. In the case of GYRKEQERLGIPYDPIQWSTDQVLHWVVWVMKEFSMTDIDLTTLNISGRELCSHNQEDFFQRVPRGEILWSHLELLRKY it was -0.486 ± 0.25. In the case of GYRKEQERLGIPYDPIQWSTDQVLHWVVWVMKEFSMTDIDLTTLNISGRELCSVNQEDFFQRVPRGEILWSHLELLRKY it was -0.341 ± 0.058; in that of GYRKEQERLGIPYDPIQWSTDQVLHWVVWVMKEFSMTDIDLTTLNISGRELCSRNQEDFFQRVPRGEILWSHLELLRKY, -0.682 ± 0.046. As for GYRKEQERLGIPYDPIQWSTDQVLHWVVWVMKEFSMTDIDLTTLNISGRELCSGNQEDFFQRVPRGEILWSHLELLRKY, the abundance fitness was -0.791 ± 0.072. GYRKEQERLGIPYDPIQWSTDQVLHWVVWVMKEFSMTDIDLTTLNISGRELCSWNQEDFFQRVPRGEILWSHLELLRKY: the abundance fitness is -0.021 ± 0.049. Take GYRKEQERLGIPYDPIQWSTDQVLHWVVWVMKEFSMTDIDLTTLNISGRELCSLFQEDFFQRVPRGEILWSHLELLRKY: the abundance fitness is -0.712 ± 0.087. Turning to GYRKEQERLGIPYDPIQWSTDQVLHWVVWVMKEFSMTDIDLTTLNISGRELCSLGQEDFFQRVPRGEILWSHLELLRKY, the abundance fitness was -0.02 ± 0.035. On to GYRKEQERLGIPYDPIQWSTDQVLHWVVWVMKEFSMTDIDLTTLNISGRELCSLEQEDFFQRVPRGEILWSHLELLRKY, for which the abundance fitness was -0.037 ± 0.078. GYRKEQERLGIPYDPIQWSTDQVLHWVVWVMKEFSMTDIDLTTLNISGRELCSLDQEDFFQRVPRGEILWSHLELLRKY: the abundance fitness is 0.008 ± 0.054.

For the origin of these results see the Human Domainome abundance scans (Beltran et al. 2025).
